Measured values as given in PMC4370478, “Inhibition of Zn(II) Binding Type IA Topoisomerases by Organomercury Compounds and Hg(II)”.

Target: E. coli topoisomerase I (ETOP) (Escherichia coli, UniProt P06612 1-865)
Test: fluorescence anisotropy; 0.5 mM MgCl2; no inhibitor (Kd fitted, value not in the text held); 50 mM Tris-HCl pH 7.5, 100 mM NaCl, 0.1 mM EDTA, 0.5 mM MgCl2; 10-30 nM oligonucleotide; temperature not stated
Conditions: label: 3' 6-carboxyfluorescein; hairpin, 16 bp stem

E. coli topoisomerase I (ETOP), sequence (P06612 whole entry): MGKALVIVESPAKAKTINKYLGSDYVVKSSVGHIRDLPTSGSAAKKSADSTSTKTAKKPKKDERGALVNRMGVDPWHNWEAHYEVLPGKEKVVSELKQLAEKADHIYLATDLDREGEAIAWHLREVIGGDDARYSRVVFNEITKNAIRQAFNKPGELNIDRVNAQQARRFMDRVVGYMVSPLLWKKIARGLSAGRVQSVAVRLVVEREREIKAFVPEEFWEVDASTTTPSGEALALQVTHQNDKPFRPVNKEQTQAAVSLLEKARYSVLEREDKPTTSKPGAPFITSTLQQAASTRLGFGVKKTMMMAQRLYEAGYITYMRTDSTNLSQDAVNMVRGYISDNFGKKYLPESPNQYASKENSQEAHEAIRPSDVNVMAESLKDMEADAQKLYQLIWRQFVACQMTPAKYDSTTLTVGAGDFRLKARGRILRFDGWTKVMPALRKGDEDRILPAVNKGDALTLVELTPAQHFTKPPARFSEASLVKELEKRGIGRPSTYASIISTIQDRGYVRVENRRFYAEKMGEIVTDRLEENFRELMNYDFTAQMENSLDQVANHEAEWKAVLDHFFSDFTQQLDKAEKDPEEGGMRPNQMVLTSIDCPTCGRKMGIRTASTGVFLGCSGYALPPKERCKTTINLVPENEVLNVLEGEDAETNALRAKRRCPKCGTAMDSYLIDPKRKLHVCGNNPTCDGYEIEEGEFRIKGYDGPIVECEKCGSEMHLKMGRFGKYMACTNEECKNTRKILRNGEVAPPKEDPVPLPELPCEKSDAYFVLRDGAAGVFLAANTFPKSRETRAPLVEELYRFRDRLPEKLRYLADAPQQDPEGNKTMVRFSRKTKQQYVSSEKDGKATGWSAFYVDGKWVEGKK

B1: 59-base stem-loop oligonucleotide (non-cleavable) (structured_DNA)
DNA: GCCCTGAAAGATTATGGAATGGGATTAGGGTAAAGGAAGAGAGCATAATCTTTCAGGGC
binding result: binds
